First the molecules themselves.
B1: LINE1-full (parent)
chain: UACGUAGGUGGUUUUCCCCUGAUAGUGCUAAGGGGGCCUGGAAGUUUGGACUGGGCAGAGCUCAACACAGCGUGGCAAAGUGGCUGUGGCUAGACUGCCUCUCUGGAUUCCUCGUCACUCAGCAGGGCAUCUCUGAGAGAAAUGCC

In the RNAGym collection of RNA variant scans (doi:10.7554/elife.90254) one finds self-cleavage data, which are given here for 167 variants.

Variants of B1 are the subject of the data set. The experiment in a line: self-cleavage, relative activity (ratio to wild type); higher = more cleavage; in vitro, sequencing; the parent is a self-cleaving ribozyme.
Turning to A2C A65G, the self-cleavage is 0.12.
With A2G A22G, the self-cleavage was 0.97.
To A2G A22U belongs 0.19; to C3U A121U, 1.41.
Turning to A2G U96A, the self-cleavage stood at 0.22.
For G4A U14C, the self-cleavage was 0.59.
G4A U14A: the self-cleavage stood at 0.75.
For G4A A140C, the self-cleavage was 0.27.
On to G4A A140G, for which the self-cleavage came out at 0.76.
For the variant A2C A140G, the self-cleavage amounted to 1.28.
As for A2G A30G, the self-cleavage is 0.87.
To G4A A141G belongs 0.89; to G4U A138U, 1.19.
To G4A A136G belongs 0.86; to G4A U81A, 1.34; to U1C G125A, 1.34.
To C3U A65G belongs 0.17; to A2G A50G, 0.39.
In the case of A2G A50U, the self-cleavage is 0.18.
On to A2U U46A, for which the self-cleavage was found to be 0.51.
C3U A42G: the self-cleavage worked out at 1.22.
To A2U A64G belongs 0.23.
In the case of A2G A121G it was 1.44; in that of G4A A124U, 0.53; in that of G4C U115C, 2.15.
Regarding A2U C111A, the self-cleavage came out at 0.68.
In the case of G4U U81C it was 0.2; in that of C3A A142G, 0.82; in that of A2C U14A, 1.16.
Consider A2C G89A, for which the self-cleavage came to 0.05.
As for A2G U87C, the self-cleavage was 0.35.
With A2G C3U, the self-cleavage came out at 0.65.
In the case of C3U U109A, the self-cleavage worked out at 0.93.
Turning to A2G G44U, the self-cleavage came out at 0.87.
For U1C U52A, the self-cleavage came out at 0.88.
With A2C U102C, the self-cleavage is 1.65.
On to G4U A77G, for which the self-cleavage is 2.68.
In the case of G4A U130C it was 1.38; in that of A2G G144A, 0.86; in that of A2C U85G, 0.16.
For the variant A2U U96C, the self-cleavage was 0.31.
A2U A50G: the self-cleavage was determined as 0.53.
Take A2G A141U: the self-cleavage was 0.24.
Consider A2C A142G, for which the self-cleavage came to 1.78.
As to C3A U104A, the self-cleavage was found to be 0.7.
For the variant A2U U14C, the self-cleavage was determined as 0.83.
Turning to C3U A136G, the self-cleavage was 1.08.
Turning to A2U A67U, the self-cleavage came out at 0.05.
For A2U A67C, the self-cleavage was determined as 0.12.
For the variant G4C A79G, the self-cleavage is 0.29.
As to U5A A6G, the self-cleavage turned out to be 2.12.
Consider U5A A6U, for which the self-cleavage stood at 1.23.
On to A2G A124U, for which the self-cleavage amounted to 0.88.
To A2G A124G belongs 0.74; to C3A U13A, 0.79; to A2U A65U, 0.23.
For U1C U87C, the self-cleavage came out at 0.1.
To A2G G36U belongs 0.67.
To A2G U104C belongs 0.84.
For the variant A2U A57C, the self-cleavage was determined as 0.16.
Consider A2U A57G, for which the self-cleavage was 0.6.
As to A2G U29A, the self-cleavage stood at 1.14.
To A2G U29G belongs 1.09.
A2C U73A: the self-cleavage came to 1.29.
With G4A G21A, the self-cleavage was determined as 0.76.
For A2G U132C, the self-cleavage worked out at 1.04.
As for A2U U112C, the self-cleavage was 1.4.
On to A2U C76U, for which the self-cleavage turned out to be 1.07.
Regarding A2G U102G, the self-cleavage came to 0.
In the case of A2G U26C it was 0.88; in that of A2G U26A, 0.84; in that of G4A U73A, 0.97.
Turning to G4A U73C, the self-cleavage worked out at 1.68.
On to G4U U134A, for which the self-cleavage came to 1.07.
C3U U47A: the self-cleavage came out at 0.67.
For the variant A2U A42U, the self-cleavage turned out to be 0.47.
In the case of A2C U143A, the self-cleavage was determined as 1.85.
For G4A U115C, the self-cleavage was 0.9.
As for G4A U115A, the self-cleavage came out at 1.14.
As for A2G G106U, the self-cleavage turned out to be 1.04.
As to U1G U132C, the self-cleavage was determined as 1.36.
Turning to G4A U52C, the self-cleavage was 0.88.
As to G4U A30G, the self-cleavage is 1.11.
To U1C U39C belongs 0.95; to A2G U112A, 0.09.
In the case of A2G U112G it was 0.77.
With A2C G4U, the self-cleavage turned out to be 1.34.
For U1G C37G, the self-cleavage turned out to be 0.49.
In the case of C3U it was 0.83; in that of C3G, 1.34.
In the case of C3A it was 0.69.
For U1G, the self-cleavage is 0.87.
To A2G A57U belongs 0.38; to A2U U132C, 1.09; to A2G U12C, 0.96.
On to A2G A24U, for which the self-cleavage came to 1.34.
Take G4A G139A: the self-cleavage was 1.21.
For A2U A77G, the self-cleavage is 1.77.
As to U1C U100C, the self-cleavage stood at 1.2.
Regarding C3U G58U, the self-cleavage is 0.
On to C3A G106A, for which the self-cleavage was 0.57.
Take A2G A65U: the self-cleavage was found to be 0.66.
To A2G A65G belongs 0.2; to C3U U119C, 1.14.
On to A2G G72A, for which the self-cleavage turned out to be 1.15.
With A2G G72U, the self-cleavage was 0.53.
In the case of A2G U100C it was 0.62; in that of C3U U134C, 1.05.
Turning to C3G U132A, the self-cleavage turned out to be 0.24.
With G4A U104C, the self-cleavage is 0.83.
In the case of C3U A50U, the self-cleavage was 0.58.
To C3A U73A belongs 0.64.
Turning to U5A A67G, the self-cleavage was 0.7.
In the case of A2U A138U, the self-cleavage came out at 1.01.
For the variant A2U A30G, the self-cleavage was 1.2.
In the case of U1C U62C it was 0.12; in that of U1C U62A, 0.05; in that of A2G A67G, 0.41.
With A2G A67U, the self-cleavage came to 0.18.
U1C U45A: the self-cleavage stood at 0.84.
Regarding A2G C28U, the self-cleavage was found to be 0.72.
In the case of C3U A30G it was 1.75; in that of C3U A22U, 0.99; in that of C3U A22G, 0.95.
As for C3U C111U, the self-cleavage was 0.65.
On to C3U U20C, for which the self-cleavage stood at 0.44.
Turning to A2G U62G, the self-cleavage was determined as 0.37.
In the case of A2U U100C it was 0.95.
For A2U U100A, the self-cleavage came to 0.66.
To C3U A67C belongs 0.12.
In the case of C3U A67U it was 0.15; in that of C3U G7C, 0.
Consider U1C U26A, for which the self-cleavage was found to be 0.53.
Take A2G A79G: the self-cleavage worked out at 0.87.
For the variant U1C U119A, the self-cleavage was determined as 1.47.
As for G4A U85C, the self-cleavage stood at 0.13.
Take G4A U108C: the self-cleavage stood at 1.04.
As for A2U A79U, the self-cleavage was determined as 1.37.
For C3G A30U, the self-cleavage was 0.91.
To A2G G89A belongs 0.11; to A2U U143C, 1.28.
In the case of G4A U87G, the self-cleavage turned out to be 0.07.
To G4A U87C belongs 0.1; to A2C U5C, 1.12; to G4C U112A, 0.75.
As for G4A U47A, the self-cleavage was found to be 0.52.
In the case of A2G A138U it was 0.69; in that of A2G A138G, 0.98; in that of A2C A50U, 0.75.
In the case of U5A A65C, the self-cleavage turned out to be 0.08.
Turning to U1C U15C, the self-cleavage turned out to be 0.92.
To U1C U112C belongs 2.17; to A2U U85A, 0.04; to C3U U108C, 1.26.
For C3U C16U, the self-cleavage stood at 0.76.
Turning to C3U U9C, the self-cleavage is 1.53.
With C3U U100A, the self-cleavage is 0.68.
C3U U115C: the self-cleavage came out at 1.03.
Regarding C3U U115A, the self-cleavage worked out at 0.72.
C3A A77G: the self-cleavage is 1.17.
G4C A107U: the self-cleavage is 1.49.
In the case of C3U U96A, the self-cleavage was determined as 0.07.
In the case of A2U A107U, the self-cleavage stood at 0.52.
A2U A107G: the self-cleavage stood at 1.
As to U1C U130A, the self-cleavage was 0.83.
To A2G U73A belongs 0.95; to A2U U29C, 0.98.
